Values of other authors in paper PMC4125106.

Molecular target: insulin receptor (Drosophila melanogaster) (UniProt P09208)
Assay: competitive binding

UniProt P09208, sequence (P09208 44-1310): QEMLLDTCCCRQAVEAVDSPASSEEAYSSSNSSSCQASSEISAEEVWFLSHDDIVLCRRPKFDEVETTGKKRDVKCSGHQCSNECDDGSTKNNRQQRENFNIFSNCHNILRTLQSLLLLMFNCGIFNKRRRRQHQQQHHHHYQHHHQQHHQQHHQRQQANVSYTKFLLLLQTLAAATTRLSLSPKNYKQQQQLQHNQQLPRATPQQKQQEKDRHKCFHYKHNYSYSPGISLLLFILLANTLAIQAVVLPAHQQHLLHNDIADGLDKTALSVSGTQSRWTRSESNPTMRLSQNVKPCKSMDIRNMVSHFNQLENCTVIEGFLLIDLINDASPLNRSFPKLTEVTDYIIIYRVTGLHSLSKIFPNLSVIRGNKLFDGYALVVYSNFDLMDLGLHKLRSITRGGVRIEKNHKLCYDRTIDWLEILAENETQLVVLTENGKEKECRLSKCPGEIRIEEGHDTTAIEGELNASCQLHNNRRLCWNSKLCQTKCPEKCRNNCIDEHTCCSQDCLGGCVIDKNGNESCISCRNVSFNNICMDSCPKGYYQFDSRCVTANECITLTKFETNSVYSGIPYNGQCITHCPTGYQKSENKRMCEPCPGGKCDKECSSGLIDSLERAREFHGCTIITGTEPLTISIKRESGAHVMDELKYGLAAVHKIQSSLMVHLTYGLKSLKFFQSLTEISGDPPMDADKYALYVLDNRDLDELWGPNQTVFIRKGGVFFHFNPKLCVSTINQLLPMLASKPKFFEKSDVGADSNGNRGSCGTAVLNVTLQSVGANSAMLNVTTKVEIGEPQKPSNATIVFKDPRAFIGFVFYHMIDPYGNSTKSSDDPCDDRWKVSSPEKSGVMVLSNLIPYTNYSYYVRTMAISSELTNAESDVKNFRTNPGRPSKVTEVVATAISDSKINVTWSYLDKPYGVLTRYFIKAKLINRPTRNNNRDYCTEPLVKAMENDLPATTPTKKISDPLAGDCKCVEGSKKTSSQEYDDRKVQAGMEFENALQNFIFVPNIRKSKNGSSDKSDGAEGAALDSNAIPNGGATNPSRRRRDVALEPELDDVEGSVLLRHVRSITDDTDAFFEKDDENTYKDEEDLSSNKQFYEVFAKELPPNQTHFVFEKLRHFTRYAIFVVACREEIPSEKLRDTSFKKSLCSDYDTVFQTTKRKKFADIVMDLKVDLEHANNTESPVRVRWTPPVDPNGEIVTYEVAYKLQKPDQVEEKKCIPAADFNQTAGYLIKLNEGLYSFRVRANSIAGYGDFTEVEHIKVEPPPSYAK

Kd: 0.555 nM
Substance: Ilp5 (from UniProt Q7KUD5)
